Measured values taken from article PMC6978347.

Molecular target: polymerization-deficient p62^1–102 (D69A/D73A) (human) (UniProt Q13501)
Assay: ITC; VP-ITC, 25 °C, 10 mM HEPES pH 7.5, 150 mM NaCl; p62 D69A/D73A in the cell (5–20 μM), partner PB1 domain in the syringe (25–100 μM); one-site model; mean of three measurements

Kd: 0.0268 µM
B1: MEKK3^43–127 (MEKK3–PB1) (domain or fragment)
chain: SDVRIKFEHNGERRIIAFSRPVKYEDVEHKVTTVFGQPLDLHYMNNELSILLKNQDDLDKAIDILDRSSSMKSLRILLLSQDRNH
